From patent US6440701 (AVENTIS PASTEUR, dated 2002)

Target: apo-hTf-Sepharose 4B (human apo-transferrin coupled to Sepharose 4B) (human, UniProt P02787 20-698, coupled to Sepharose 4B)
Assay: affinity chromatography of solubilized membranes on apo-hTf-Sepharose 4B

Sequence of apo-hTf-Sepharose 4B (human apo-transferrin coupled to Sepharose 4B) (P02787 20-698 limits assumed): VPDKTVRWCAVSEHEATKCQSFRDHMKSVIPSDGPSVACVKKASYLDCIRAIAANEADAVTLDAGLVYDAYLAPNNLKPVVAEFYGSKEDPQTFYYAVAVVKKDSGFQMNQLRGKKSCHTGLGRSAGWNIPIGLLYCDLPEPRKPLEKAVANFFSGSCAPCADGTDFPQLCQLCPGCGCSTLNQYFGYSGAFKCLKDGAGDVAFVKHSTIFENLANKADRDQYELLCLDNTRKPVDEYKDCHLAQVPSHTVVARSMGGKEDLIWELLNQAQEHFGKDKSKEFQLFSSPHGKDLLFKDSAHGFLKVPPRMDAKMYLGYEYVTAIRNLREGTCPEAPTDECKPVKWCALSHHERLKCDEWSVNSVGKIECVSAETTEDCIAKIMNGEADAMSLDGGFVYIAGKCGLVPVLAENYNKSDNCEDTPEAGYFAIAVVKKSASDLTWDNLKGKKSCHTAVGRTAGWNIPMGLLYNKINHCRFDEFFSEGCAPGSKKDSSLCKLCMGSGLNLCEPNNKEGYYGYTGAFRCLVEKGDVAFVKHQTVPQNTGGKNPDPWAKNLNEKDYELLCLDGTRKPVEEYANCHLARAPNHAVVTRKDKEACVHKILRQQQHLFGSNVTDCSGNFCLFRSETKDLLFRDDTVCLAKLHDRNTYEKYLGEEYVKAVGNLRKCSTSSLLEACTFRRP

B1: Native Tbp2 (4223) (receptor)
chain: CGGSGGSNPPAPTPIPNASGSGNTGNTGNAGGTDNTANAGNTGGTNSGTGSANTPEPKYQDVPTEKNEKDKVSSIQEPAMGYGMALSKINLHNRQDTPLDEKNIITLDGKKQVAEGKKSPLPFSLDVENKLLDGYIAKMNVADKNAIGDRIKKGNKEISDEELAKQIKEAVRKSHEFQQVLSSLENKIFHSNDGTTKATTRDLKYVDYGYYLANDGNYLTVKTDKLWNLGPVGGVFYNGTTTAKELPTQDAVKYKGHWDFMTDVANRRNRFSEVKENSQAGWYYGASSKDEYNRLLTKEDSAPDGHSGEYGHSSEFTVNFKEKKLTGKLFSNLQDRHKGNVTKTERYDIDANIHGNRFRGSATASNKNDTSKHPFTSDANNRLEGGFYGPKGEELAGKFLTNDNKLFGVFGAKRESKAEEKTEAILDAYALGTFNTSNATTFTPFTEKQLDNFGNAKKLVLGSTVIDLVPTDATKNEFTKDKPESATNEAGETLMVNDEVSVKTYGKNFEYLKFGELSIGGSHSVFLQGERTATTGEKAVPTTGTAKYLGNWVGYITGKDTGTGTGKSFTDAQDVADFDIDFGNKSVSGKLITKGRQDPVFSITGQIAGNGWTGTASTTKADAGGYKIDSSSTGKSIVIKDANVTGGFYGPNANEMGGSFTHNADDSKASVVFGTKRQQEVK
B1: binds.
